Assay results taken from publication doi:10.1101/2020.09.15.297887.

Target: PARP1 (UniProt P09874 1-1014)
Assay: fluorescence polarization

PARP1, sequence (P09874 whole entry): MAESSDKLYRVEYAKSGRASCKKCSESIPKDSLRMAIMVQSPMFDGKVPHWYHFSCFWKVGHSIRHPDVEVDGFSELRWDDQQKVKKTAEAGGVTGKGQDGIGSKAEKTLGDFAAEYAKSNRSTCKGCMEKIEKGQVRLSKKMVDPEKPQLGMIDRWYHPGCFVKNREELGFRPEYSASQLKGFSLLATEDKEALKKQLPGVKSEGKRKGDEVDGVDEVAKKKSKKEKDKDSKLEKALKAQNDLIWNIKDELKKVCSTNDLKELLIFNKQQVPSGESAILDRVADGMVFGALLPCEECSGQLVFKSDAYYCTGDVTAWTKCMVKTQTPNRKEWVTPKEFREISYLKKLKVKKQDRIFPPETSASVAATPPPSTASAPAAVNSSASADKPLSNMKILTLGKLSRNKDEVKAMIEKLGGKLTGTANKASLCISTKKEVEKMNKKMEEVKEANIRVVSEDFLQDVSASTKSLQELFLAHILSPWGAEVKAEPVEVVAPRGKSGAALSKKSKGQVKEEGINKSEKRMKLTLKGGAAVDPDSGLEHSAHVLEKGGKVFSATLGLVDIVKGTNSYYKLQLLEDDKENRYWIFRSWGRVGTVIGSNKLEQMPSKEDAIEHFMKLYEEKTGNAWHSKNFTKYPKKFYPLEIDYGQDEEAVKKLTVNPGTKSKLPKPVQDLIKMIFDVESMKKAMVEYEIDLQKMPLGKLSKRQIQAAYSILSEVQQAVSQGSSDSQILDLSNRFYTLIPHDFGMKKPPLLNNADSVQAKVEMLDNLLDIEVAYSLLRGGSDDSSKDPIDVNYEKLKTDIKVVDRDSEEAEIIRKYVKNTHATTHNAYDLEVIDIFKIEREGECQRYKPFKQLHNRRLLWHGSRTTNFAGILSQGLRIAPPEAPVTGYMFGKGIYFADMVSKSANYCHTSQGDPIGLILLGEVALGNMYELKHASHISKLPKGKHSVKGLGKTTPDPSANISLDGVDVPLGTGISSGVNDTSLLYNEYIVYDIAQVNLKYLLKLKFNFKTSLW

Binder: GCTGAGCTTCTGGTGAAGCTCAGCTCGCGGCAGCTGGTGCTGCCGCGA (structured_DNA, internal fluorescein-dT (iFluorT) at position 8) [DNA dumbbell with single-strand break]
- Kd: 71 nM
